Laboratory results from patent US20040076601A1, “Pharmaceutical form comprising a cell regulating factor and/or a cell proliferation promoter” (priority 2000, published 2004).

Assays:
BP-A31 cells = experiment: Stability of the biological activity of FGF-2 after storage at 4° C., MTT assay (Example 4); type: cell-based, mouse; settings: MTT assay 24 h, FIG. 1
Protocol: The materials used are on the one hand the three pharmaceutical forms of Example 3, in which the support material consists of different proportions by weight of methylidene malonate oligomers and polymers, and on the other hand free (non-formulated) FGF-2. After storage of the 3 pharmaceutical forms and the free FGF-2 for 7, 14 and 21 days at 4° C., the stimulating activity on cell proliferation is measured by the MTT assay described in Example 2 for 24 h compared with a control culture with no growth factor added.
The results are shown graphically in FIG. 1, in which the storage time at 4° C., expressed in days, is plotted on the abscissa and the percentage proliferation is plotted on the ordinate.

BP-A31 fibroblasts = experiment: MTT proliferation assay of form containing SPC (Example 7); type: cell-based, mouse; settings: BP-A31 fibroblasts over 24 h vs untreated control; 3.1% added to the well, final theoretical SPC concentration 15 μM
Protocol: SPC was formulated in a support material containing 60% by weight of methylidene malonate oligomer and 40% by weight of methylidene malonate polymer prepared from 1-ethoxycarbonyl-1-ethoxycarbonylmethyleneoxycarbonylethene monomer (100 μg of SPC formulated per 40 mg of material, as described in Example 2). The pharmaceutical form according to the invention, containing SPC or its control solvent, was then brought into contact with BP-A31 fibroblasts according to the protocol described in Example 1. The effect of adding 3.1% to the well, generating a final theoretical SPC concentration of 15 μM, is shown here. The stimulation of cell proliferation was quantified by the MTT assay. The results, expressed as the percentage proliferation of the cells over 24 h compared with an untreated control culture, are reported in Table 6 below.

Compound | stability of biological activity on storage (BP-A31 cells) | Proliferation (%) (BP-A31 fibroblasts)
free (non-formulated) FGF-2: free (non-formulated) basic fibroblast growth factor, human recombinant FGF-2 | rapidly losing its biological activity (after 7 days) | 
CCCCCCCCCCCCC/C=C/[C@@H](O)[C@@H](N)COP(=O)([O-])OCC[N+](C)(C)C [Free SPC, sphingosylphosphorylcholine] |  | 158.8 ± 3.2%
